This is an account of results in publication PMC4397963, “Phospho-Tyrosine(s) vs. Phosphatidylinositol Binding in Shc Mediated Integrin Signaling” (American journal of molecular biology, 2015).

Entries after “also recorded” stand apart in the source; their conditions may differ. Where no end group is shown, it is not given here. [ ]: non-standard residue; d: D form. pY = N[C@@H](Cc1ccc(OP(=O)(O)O)cc1)C(=O)O

Test [1] deals with apo Shc PTB domain. Put plainly: 15N-HSQC NMR titration of apo Shc PTB domain. The test is classed as binding. As to conditions: 15N-labelled apo PTB 100 – 200 μM, 50 mM Tris pH 7.5, 100 mM NaCl, 35°C; lipid to protein up to 15 to 1 (Ins(1,4,5)P3), 5 to 1 (PtdIns(4,5)P2). As for the experimental part: ^15N-labelled recombinant proteins were overexpressed in M9 medium supplemented with ^15NH4Cl as the sole nitrogen source. The same purification procedures as described above were followed. NMR samples of 100 – 200 μM were prepared in a buffer of 50 mM Tris, pH 7.5, 100 mM NaCl, 5 mM β-mercaptoethanol, 7% D2O, 1 mM 4,4-dimethyl-4-silapentane-1-sulfonic acid as the internal standard. ^15N-HSQC titration experiments were performed on a Varian/Agilent Inova 600 MHz spectrometer equipped with inverse-triple resonance cryo-probe at 35°C. All spectra were processed with NMRPipe and analyzed in CCPNmr Analysis software suite.
To find out the molecular details of these weak Shc-PtdIns interactions, we next employed NMR and performed ^15N-HSQC chemical shifts mapping experiments which are especially useful to define weak binding. […] Chemical shift perturbations, associated with the probes binding, were monitored. Overall, the observed shifts in Shc PTB resonance frequencies were small. However, they were concentration dependent, reproducible, and similar among the two PtdIns tested. […] The close-ups of 15N-HSQC spectra of PTB in the presence of PtdIns(4,5)P2, exemplifying the most shifted resonances, are shown in Figure 2. […] The first one, represented by the residues Q^148, S^149 and A^168, overlaps with the classical phosphotyrosine binding pocket of the protein-peptide binary complex. However, the canonical PTB fold cannot be formed without the stabilizing hydrophobic residue (pY-5) of the target peptide. Thus, in apo PTB domain Ins(1,4,5)P3 could only establish intermediate dynamic contacts with the amine functional groups of R^67 or Q^148 side chains. The second binding site, including the residues L^63, Q^76 and S^107, is formed at the interface of the second helix, the loop connecting the first beta strand with the second helix and the beginning of the second beta strand. This second PtdIns binding site is distinct from the second novel phosphotyrosine binding site we previously described for Shc PTB-bi-β3 complex, although it includes several overlapping residues. […]

The target in test [2] is full length Shc. As to conditions: ref [21], cited from earlier work. The source says: Since their discovery about two decades ago, PTB domains have been identified and structurally characterized within numerous multi-domain proteins. The ways they interact with their targets are strikingly versatile. The phosphorylated tyrosine is not always required for the high affinity interactions, and, in some cases, the binding motif might not even contain the tyrosine residue at all. PTB domains in general are also famous for the significant variance in their ligand binding affinities, ranging from 0.1 to 100 μM [17]. […] We were greatly surprised that we were not able to reproduce the data reported by George and co-workers, who have reported a tight dissociation constant (Kd of 0.7 μM) for the full length Shc. […] The conditions we tested include: i) Shc PTB domain at 12°C and 25°C in several different buffers (including exactly th ...

The target in test [3] is T1, Shc PTB domain (17 – 207) (Homo sapiens, UniProt P29353).
T1 construct: The Shc PTB domain (17 – 207) containing the pET15b vector was transformed into a Rosetta (DE3) cell line; His-tag (N); made in house; host or cells: E. coli Rosetta (DE3), pET15b
T1 sequence (P29353 17-207 isoform P29353-2): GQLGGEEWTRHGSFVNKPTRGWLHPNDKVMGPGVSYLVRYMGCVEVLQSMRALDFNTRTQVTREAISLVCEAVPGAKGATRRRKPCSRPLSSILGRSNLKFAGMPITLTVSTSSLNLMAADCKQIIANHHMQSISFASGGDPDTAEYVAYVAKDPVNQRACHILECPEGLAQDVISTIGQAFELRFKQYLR
Put plainly: ITC binding to Shc PTB domain. As to conditions: Shc PTB domain, 12°C and 25°C, several buffers incl. 50 mM Tris pH 8.0, 200 mM NaCl, 1 mM Dithiothreitol. As to the method: (§1) The Shc PTB domain (17 – 207) containing the pET15b vector was transformed into a Rosetta (DE3) cell line to pursue optimal expression levels. SH2 domain (380 – 473) was cloned into NdeI and XhoI sites in pET21b vector and then transformed into a BL21 (DE3) cell line. The vector of pET28a-full length Shc (1 – 473), generously provided by Dr. Ladbury (University of Texas MD Anderson Cancer Center, TX), was expressed in a BL21 (DE3) cell line as well. Typically, 10 ml overnight culture was used to inoculate 1 liter LB broth. Cells were grown at 37°C until OD600 reached 0.6. At this point the culture was cooled to room temperature and then the overnight overexpression was induced by 1 mM isopropyl-β-D-thiogalactopyranoside. Harvested cells were kept at −20°C for future purification or resuspended in lysis buffer supplemented with protease inhibitors. Cells were further lysed by french press and the cell debris was removed by centrifugation at 18,000 rpm at 4°C. […] The overexpression of the target protein and the purified protein were confirmed by SDS-PAGE and the bands of the expected mass were observed. The determination of protein concentration by UV measurement was consistent with Bradford assay.
Calorimetric measurements of a full length Shc, PTB domain, and SH2 domain to β3 phosphopeptides or PtdIns were performed on a low volume Nano ITC (TA Instruments). All experiments were carried out in a buffer of 50 mM Tris, pH 7.5, 100 mM NaCl, 5 mM β-mercaptoethanol (unless described otherwise) at 12°C or 25°C with a stirring speed of 250 rpm to minimize the precipitation of the protein. 300 second time intervals were set between injections. The concentration of protein samples was determined by UV measurements. The titrants (β3 phosphopeptides or PtdIns) were prepared in the same buffer by the dilution of higher concentration stocks. The concentrations of the protein ranged from 30 μM to 150 μM. The concentration of protein was examined after each ITC experiment by UV to ensure the stability of proteins under the test condition. The analysis of the data was done with Nano Analyze Software (TA Instruments) suite using an “independent” model.

Test [4] concerns Shc SH2 domain (380 – 473). Put plainly: ITC (and other) binding to Shc SH2 domain. As to conditions: 12°C and 25°C. As to the method: as §1, with “The determination of protein concentration by UV measurement was consistent with Bradford assay.” left out
(§2) Calorimetric measurements of a full length Shc, PTB domain, and SH2 domain to β3 phosphopeptides or PtdIns were performed on a low volume Nano ITC (TA Instruments). […] The concentration of protein samples was determined by UV measurements. […]

Test [5] deals with T2, full length Shc (1 – 473) (Homo sapiens, UniProt P29353).
T2 construct: The vector of pET28a-full length Shc (1 – 473), generously provided by Dr. Ladbury; His-tag (N); made in house; host or cells: E. coli BL21 (DE3), pET28a (vector a gift from Dr. Ladbury)
T2 sequence (P29353 1-473 isoform P29353-2): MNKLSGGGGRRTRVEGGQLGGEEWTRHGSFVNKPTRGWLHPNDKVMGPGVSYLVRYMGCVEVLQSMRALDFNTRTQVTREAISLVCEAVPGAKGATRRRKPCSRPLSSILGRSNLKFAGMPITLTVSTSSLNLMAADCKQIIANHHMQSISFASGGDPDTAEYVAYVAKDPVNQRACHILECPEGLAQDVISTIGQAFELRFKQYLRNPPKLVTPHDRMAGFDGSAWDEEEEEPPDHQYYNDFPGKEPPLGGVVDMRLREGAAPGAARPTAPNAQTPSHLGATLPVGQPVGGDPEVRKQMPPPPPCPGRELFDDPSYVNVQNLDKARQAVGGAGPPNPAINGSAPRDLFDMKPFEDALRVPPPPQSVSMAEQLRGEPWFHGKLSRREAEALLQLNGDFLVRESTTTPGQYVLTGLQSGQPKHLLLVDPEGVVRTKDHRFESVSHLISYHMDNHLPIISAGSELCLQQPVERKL
Put plainly: ITC binding to full length Shc. As to conditions: full length Shc, 12°C and 25°C. As for the experimental part:
as §1, with “The determination of protein concentration by UV measurement was consistent with Bradford assay.” left out
as §2

The target of test [6] is T3, full length Shc (1 – 473) (UniProt P29353-2 1-473).
T3 construct: Shc adaptor protein, full length 1-473 (printed length 473 residues, the p52 isoform), from a pET28a vector provided by Dr. Ladbury; numbers count on: the p52 isoform; Monomeric on Superdex-75; also called Shc full length; p52 Shc; source: E. coli BL21 (DE3), purified (Ni-NTA, Superdex-75)
T3 sequence (looked up): T2 sequence (P29353 1-473 isoform P29353-2)
Put plainly: ITC; Nano ITC; β3 phosphopeptide titrated into the Shc protein (30-150 μM); 25°C; 50 mM Tris, pH 7.5, 100 mM NaCl, 5 mM β-mercaptoethanol; independent model. As to conditions: both partners purified.

The target of test [7] is T4, Shc PTB domain (17 – 207) (UniProt P29353-2 17-207).
T4 construct: Shc adaptor protein (p52 isoform), PTB domain, residues 17-207, from a pET15b vector; numbers count on: the p52 isoform (full length 1-473); 15N-labelled (M9 medium with 15NH4Cl) for the NMR experiments; Monomeric on Superdex-75; also called apo PTB domain; source: E. coli Rosetta (DE3), purified (Ni-NTA, Superdex-75)
T4 sequence (looked up): T1 sequence (P29353 17-207 isoform P29353-2)
Described as above. As to conditions: both partners purified.

Test [8] has as its target T3, full length Shc (1 – 473). The test is described as follows: ITC; Nano ITC; β3 phosphopeptide titrated into the Shc protein over-saturated by Ins(1,4,5)P3 at 3 to 1 lipid to protein ratio; 12°C. The note with it: both partners purified. On the technique in general: In ITC the heat of successive injections is recorded.
For test [9], the target named is T4, Shc PTB domain (17 – 207). The test is described as above. As to conditions: both partners purified.
The target in test [10] is T4, Shc PTB domain (17 – 207). The test is described as follows: ITC; Nano ITC; β3 phosphopeptide titrated into the Shc protein (30-150 μM); 12°C; 50 mM Tris, pH 7.5, 100 mM NaCl, 5 mM β-mercaptoethanol; independent model. As to conditions: both partners purified.
Test [11] deals with T3, full length Shc (1 – 473). Described as above. The note with it: both partners purified.
The target of test [12] is T4, Shc PTB domain (17 – 207). The test is described as above. The note with it: both partners purified. The source holds these as a separate data set.
Test [13] addresses T3, full length Shc (1 – 473). Put plainly: ITC; Nano ITC; β3 phosphopeptide titrated into the Shc protein (30-150 μM); 25°C; 50 mM Tris, pH 7.5, 100 mM NaCl, 5 mM β-mercaptoethanol; independent model. The note with it: both partners purified. The source holds these as a separate data set.
For test [14], the target named is T4, Shc PTB domain (17 – 207). The test is described as above. As to conditions: both partners purified. The source holds these as a separate data set.

As a reminder, the Kd is the constant that tells how readily two partners part at equilibrium. Regarding `O=P(O)(O)O[C@@H]1[C@H](O)[C@H](O)[C@@H](OP(=O)(O)O)[C@H](OP(=O)(O)O)[C@H]1O` [Ins(1,4,5)P3, D-myo-Inositol-1,4,5-triphosphate], the “15N-HSQC chemical shift perturbations” value in test [1] is “minimal chemical shift perturbations for a handful of residues; also recorded: less pronounced compared to PtdIns(4,5)P2”. For the same molecule, the equilibrium dissociation constant (Kd) in test [2] (50 mM Tris, pH 8.0, 200 mM NaCl, 1 mM Dithiothreitol) was 0.7 µM. Also, the relative binding strength result in [2] was “much tighter than the binding of the isolated Shc PTB domain alone to PtdIns(4,5)P2”. Also, the entries for the “binding by ITC” value in [3], in [4] and in [5] were “No binding was found; also recorded: minimal Shc PTB binding; also recorded: does not show to bind”, “No binding was found; also recorded: does not show to bind” and “No binding was found; also recorded: does not”, respectively.

B1: bi-β3: β3 integrin derived bi-phosphorylated (Y747 and Y759) peptide (peptide)
peptide: RAKWDTANNPL[pY]KEATSTFTNIT[pY]RGT
notes: integrin β3 cytoplasmic tail, residues 736-762, both tyrosines phosphorylated; also called bi-phosphorylated β3 cytoplasmic tail peptide; source: synthetic peptide (NEO-Peptide)
By stoichiometry N is commonly meant the number of molecules, sites or subunits per partner or assembly. B1: the “stoichiometry N” value in test [6] is 1 ± 0.15; in test [7], approximately 1; in test [10], 1 ± 0.15. Further, the dissociation constant (Kd) in test [8] amounted to 4.38 µM; in test [9], 3.65 µM; in test [11], 5.21 µM; in test [12], 4.32 µM; in test [13], 2.84 µM; in [14], 5.14 µM. The dH in test [8] is -3.32 kcal/mol; in test [9], -2.96 kcal/mol; in [11], -3.89 kcal/mol; in test [12], -2.75 kcal/mol; in test [13], -6.89 kcal/mol; in test [14], -5.49 kcal/mol.
